Results reported in the supplement of paper PMC10126150.
± gives the standard deviation of the averaged measurements.

Tested on: ATP
Experiment: switch fluorescence ratio, 500 uM ATP over buffer (Cy3 cluster intensity, sum of 5 cycles each) (fold (ratio)); higher = stronger signal-on switching upon ATP binding; sequences stand for … in TCGTCGGCAGCGTCAGATGTGTATAAGAGACAGTTTTTTTTTTTTTTTTTTTTTTTTT…TC
Conditions: aptamer strand: ATP DNA aptamer (quencher-CACCTGGGGGAGTATTGCGGAGGAAGG + anchor), 100 nM annealed; ATP concentration: 500 uM
Procedure, shortened: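 The fluorescence ratio divides summed target-cycle Cy3 intensity by summed buffer-cycle Cy3 intensity for each cluster and is averaged per switch-domain sequence. Cy3-labelled switching-strand clusters on a modified Illumina MiSeq flow-cell were annealed to 100 nM quencher-labelled ATP aptamer, then imaged in selection buffer and again after 15 min with 500 uM ATP at 22 °C. Five such cycles were run, with NaOH stripping and re-annealing between them, and clusters outside 100-1000 RFU were excluded.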
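Further: ATP exposure 15 min at 22 °C before imaging.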

Sequence	switch fluorescence ratio
ACAGTATCGG	1.06 ± 0.013
CAAAAGTCGA	1.04 ± 0.031
TTGGAGGAAC	1.07 ± 0.12
CCCAGGTTAG	2.9 ± 0.2
GCTGAGGCAG	1.002 ± 0.0046
AAAAACTGAA	1.01 ± 0.02
AAGACAGGAA	1.03 ± 0.05
GGATCTTGGC	1.02 ± 0.025
TTTGTGGAGT	1 ± 0.021
CGCAAAGAAG	1.08 ± 0.02
CAACGGGTTC	1.03 ± 0.024
ACGCGGCGTG	0.982 ± 0.03
AGAGGGTAGT	1.01 ± 0.022
CTGTGGTTGG	0.981 ± 0.011
TTTGGGGTAC	1.72 ± 1.3
GGCCTTGGCA	1.03 ± 0.015
GATTGCAGAT	1.02 ± 0.034
GCGGAGGGGG	1 ± 0.035
ATTCTACCGC	1.49 ± 0.08
TATATTAAGA	1.01 ± 0.016
GAGGCAGAGT	1.04 ± 0.023
AAGGGGAGTG	1.02 ± 0.11

Sequence	switch fluorescence ratio
CTTAAATGAA	1.02 ± 0.036
AAAGTATGCT	0.9898 ± 0.0015
TATAAATGAT	1.06 ± 0.047
AGTTGAGGGC	0.98 ± 0.047
ATTTGGACGG	0.948 ± 0.026
ATTCAATTTT	0.996 ± 0.051
TATTAAGTTT	1.02 ± 0.039
TTGAGAGGGG	0.981 ± 0.021
CTTATTGTAG	0.964 ± 0.061
TTGCTAAAAA	1.04 ± 0.03
TTTAGCTAGG	1.01 ± 0.033
AGTTTGAGGT	0.995 ± 0.023
TTCAATTCCG	1.03 ± 0.092
ATCGCTGGGT	1.01 ± 0.019
ATAGTCAATT	0.993 ± 0.071
GAGTGAAGGA	1.03 ± 0.065
AATTTGTACC	0.989 ± 0.013
CTCATATTGT	1.006 ± 0.0076
AACGTTCGCC	0.987 ± 0.032
TGCGGGGGTC	1.04 ± 0.088
TTTCGAAAGG	0.983 ± 0.043
AGGTTCACTA	1.01 ± 0.06

Sequence	switch fluorescence ratio
TGGTTGTCCC	1.01 ± 0.038
TGGCCTCATC	1.02 ± 0.058
GGCAGTTGTG	0.986 ± 0.024
CTGGGTAGGG	1.008 ± 0.01
TATTGACGCC	1.09 ± 0.033
TTGCGTGTTG	1.01 ± 0.019
ATAATCTGCG	1.01 ± 0.012
AGTTTTTTGC	0.908 ± 0.025
GATGAGGGTG	1.06 ± 0.015
AAAGATTTTT	0.9851 ± 0.0092
GGTCGAAAGG	0.985 ± 0.063
TATAGCTACC	1.13 ± 0.043
TGGTTTTCGT	1.01 ± 0.028
TTGATACCTA	1.04 ± 0.038
CAATAGGGGC	0.969 ± 0.03
ACGGTTGAAT	0.9882 ± 0.0084
TGGGGCATCG	1 ± 0.029
GTGGGGGCTG	0.9878 ± 0.0047
GTATGTGTGC	0.96 ± 0.03
ATTATTTGCC	0.99 ± 0.01
GAGTTCGCGG	1.034 ± 0.01
TTGTAGTGGG	1.02 ± 0.048

Sequence	switch fluorescence ratio
GATTATAGAT	1 ± 0.015
CAGGGTGGTT	1.03 ± 0.028
TAACGAAACT	1.26 ± 0.28
TATGAGTATT	0.9875 ± 0.0026
GAAAGGGTTA	0.9898 ± 0.0085
GCACTATAGG	0.999 ± 0.011
GCGTAGAGCG	0.9878 ± 0.0012
CTATTCTTGG	0.9524 ± 0.006
AAGATTAGTT	0.998 ± 0.017
TTTAAATTGA	0.986 ± 0.02
AACGGACAAA	1.2 ± 0.052
TCGGAAGACA	1.01 ± 0.0069
GATCTACAGC	1.02 ± 0.024
ATAGATCATC	1.05 ± 0.02
AGACTCTTGA	1 ± 0.0083
CACGGGTGTT	1.32 ± 0.12
TGGGGGCTTT	0.99 ± 0.023
TTTGATGTTG	0.976 ± 0.033
CGGCTATGTG	0.985 ± 0.027
